Test results published in US20230374132A1 (Innovent, published 2023).
Numbering of substitutions follows the chain as printed. Names and notes keep the numbering of the source.

B1: hzsp34.109 (antibody, human IgG1, lambda, L234A L235A, V domains shown)
VH: EVQLVESGGGLVQPGGSLKLSCAASGFTFNTYAMNWVRQASGKGLEWVGRIRSKYNNYATYYADSVKDRFTISRDDSKSTLYLQMNSLKTEDTAVYYCARHGNFGQSYVSWFAYWGQGTTVTVSS
VL: QAVVTQEPSLTVSPGGTVTLTCRSSTGAVTTSNYANWVQQKPGQAPRGLIGGTNKRAPGVPARFSGSLLGDKAALTLLGAQPEDEAEYYCALWYRNLWVFGQGTKLTVLG
notes: CDR mutant of hzsp34.24; IgG1 L234A L235A, lambda
B2: hzsp34.108 (antibody, human IgG1, lambda, L234A L235A, V domains shown)
VH: B1 VH
VL: B1 VL with Y94A, R95S
notes: as for B1
B3: hzsp34.113 (antibody, human IgG1, lambda, L234A L235A, V domains shown)
VH: B1 VH
VL: B1 VL with W93A, Y94A, R95S
notes: as for B1
B4: hzsp34.112 (antibody, human IgG1, lambda, L234A L235A, V domains shown)
VH: B1 VH
VL: B1 VL with S32R, N33G, R95S
notes: as for B1
B5: hzsp34.115 (antibody, human IgG1, lambda, L234A L235A, V domains shown)
VH: B1 VH
VL: B1 VL with K55S, R95S
notes: as for B1
B6: hzsp34.107 (antibody, human IgG1, lambda, L234A L235A, V domains shown)
VH: B1 VH
VL: B1 VL with W93A, R95S
notes: as for B1
B7: hzsp34.106 (antibody, human IgG1, lambda, L234A L235A, V domains shown)
VH: B1 VH
VL: B1 VL with N33G, R95S
notes: as for B1
B8: hzsp34.110 (antibody, human IgG1, lambda, L234A L235A, V domains shown)
VH: B1 VH
VL: B1 VL with R95S, N96G
notes: as for B1
B9: hzsp34.111 (antibody, human IgG1, lambda, L234A L235A, V domains shown)
VH: B1 VH
VL: B1 VL with T30G, T31G, R95S
notes: as for B1
B10: hzsp34.114 (antibody, human IgG1, lambda, L234A L235A, V domains shown)
VH: B1 VH
VL: B1 VL with N96G
notes: as for B1
B11: hzsp34.8 (antibody, human IgG1, lambda, L234A L235A, V domains shown)
VH: B1 VH with Q106N
VL: B1 VL with V38F, G48T, G51Y, G59W, V60T, D71G, R95S
notes: IgG1 L234A L235A, lambda
B12: hzsp34.22 (antibody, human IgG1, lambda, L234A L235A, V domains shown)
VH: B1 VH with S79N, Q106N
VL: B1 VL with R95S
notes: IgG1 L234A L235A, lambda
B13: hzsp34.15 (antibody, human IgG1, lambda, L234A L235A, V domains shown)
VH: B1 VH with G49A
VL: B1 VL with G48T, D71G, R95S
notes: IgG1 L234A L235A, lambda
B14: hzsp34.9 (antibody, human IgG1, lambda, L234A L235A, V domains shown)
VH: B1 VH
VL: B1 VL with V38F, G48T, G51Y, G59W, V60T, D71G, R95S
notes: IgG1 L234A L235A, lambda
B15: hzsp34.14 (antibody, human IgG1, lambda, L234A L235A, V domains shown)
VH: B1 VH
VL: B1 VL with G48T, D71G, R95S
notes: IgG1 L234A L235A, lambda
B16: hzsp34.10 (antibody, human IgG1, lambda, L234A L235A, V domains shown)
VH: B1 VH with G49A
VL: B1 VL with V38F, G48T, G51Y, G59W, V60T, D71G, R95S
notes: IgG1 L234A L235A, lambda
B17: hzsp34.20 (antibody, human IgG1, lambda, L234A L235A, V domains shown)
VH: B1 VH with G49A
VL: B1 VL with D71G, R95S
notes: IgG1 L234A L235A, lambda
B18: hzsp34.17 (antibody, human IgG1, lambda, L234A L235A, V domains shown)
VH: B1 VH with S79N, Q106N
VL: B1 VL with D71G, R95S
notes: IgG1 L234A L235A, lambda
B19: hzsp34.19 (antibody, human IgG1, lambda, L234A L235A, V domains shown)
VH: B1 VH
VL: B1 VL with D71G, R95S
notes: IgG1 L234A L235A, lambda
B20: hzsp34.18 (antibody, human IgG1, lambda, L234A L235A, V domains shown)
VH: B1 VH with Q106N
VL: B1 VL with D71G, R95S
notes: IgG1 L234A L235A, lambda
B21: hzsp34.23 (antibody, human IgG1, lambda, L234A L235A, V domains shown)
VH: B1 VH with Q106N
VL: B1 VL with R95S
notes: IgG1 L234A L235A, lambda
B22: hzsp34.25 (antibody, human IgG1, lambda, L234A L235A, V domains shown)
VH: B1 VH with G49A
VL: B1 VL with R95S
notes: IgG1 L234A L235A, lambda

molecular target: T1, human CD3 E&D complex protein (Sino Biological Inc., CT026H0323H) (human, UniProt P07766 23-126; P04234 22-105); assay: BLI, antibody on sensor
T1 construct: bought heterodimer; also called human CD3 protein (CT026H0323H)
T1 sequence (P07766 23-126, chain 1 of 2): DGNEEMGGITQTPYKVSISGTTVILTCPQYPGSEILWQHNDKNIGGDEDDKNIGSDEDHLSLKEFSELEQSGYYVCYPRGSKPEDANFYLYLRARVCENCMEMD
T1 sequence (P04234 22-105, chain 2 of 2): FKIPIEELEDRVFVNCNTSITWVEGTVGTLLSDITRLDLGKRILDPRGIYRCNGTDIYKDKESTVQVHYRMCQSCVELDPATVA

Row | Binder | Kd | koff | kon
1 | B1 | 1.15 nM | 0.000258 s⁻¹ | 225000 M⁻¹ s⁻¹
2 | B2 | 0.965 nM | 0.0002 s⁻¹ | 207000 M⁻¹ s⁻¹
3 | B3 | 1.02 nM | 0.0002 s⁻¹ | 196000 M⁻¹ s⁻¹
4 | B4 | 0.722 nM | 0.000204 s⁻¹ | 282000 M⁻¹ s⁻¹
5 | B5 | 1.26 nM | 0.000331 s⁻¹ | 264000 M⁻¹ s⁻¹
6 | B6 | 8.44 nM | 0.00141 s⁻¹ | 167000 M⁻¹ s⁻¹
7 | B7 | 1.54 nM | 0.000365 s⁻¹ | 236000 M⁻¹ s⁻¹
8 | B8 | 0.951 nM | 0.0002 s⁻¹ | 210000 M⁻¹ s⁻¹
9 | B9 | 1.94 nM | 0.000454 s⁻¹ | 235000 M⁻¹ s⁻¹
10 | B10 | 1.08 nM | 0.000282 s⁻¹ | 262000 M⁻¹ s⁻¹

molecular target: T2, human CD3E&G complex (Sino Biological Inc., CT041-H0305H) (human, UniProt P07766 23-126; P09693 23-116); assay: BLI, antibody on sensor
T2 construct: bought heterodimer; also called human CD3E&G antigen
T2 sequence (P07766 23-126, chain 1 of 2): as the sequence (P07766 23-126, chain 1 of 2) above
T2 sequence (P09693 23-116, chain 2 of 2): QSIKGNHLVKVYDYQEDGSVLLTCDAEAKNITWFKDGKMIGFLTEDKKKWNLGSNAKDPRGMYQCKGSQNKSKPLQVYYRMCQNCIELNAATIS

Row | Binder | Kd | koff | kon
11 | B1 | 9.02 nM | 0.0021 s⁻¹ | 233000 M⁻¹ s⁻¹
12 | B2 | 7.19 nM | 0.00146 s⁻¹ | 203000 M⁻¹ s⁻¹
13 | B3 | 3.71 nM | 0.000811 s⁻¹ | 219000 M⁻¹ s⁻¹
14 | B4 | 6.6 nM | 0.00155 s⁻¹ | 235000 M⁻¹ s⁻¹
15 | B5 | 7.7 nM | 0.00184 s⁻¹ | 238000 M⁻¹ s⁻¹
16 | B6 | 59.8 nM | 0.00446 s⁻¹ | 74600 M⁻¹ s⁻¹
17 | B7 | 10.3 nM | 0.00237 s⁻¹ | 230000 M⁻¹ s⁻¹
18 | B8 | 8.49 nM | 0.00188 s⁻¹ | 222000 M⁻¹ s⁻¹
19 | B9 | 9.5 nM | 0.00191 s⁻¹ | 201000 M⁻¹ s⁻¹
20 | B10 | 6.69 nM | 0.00134 s⁻¹ | 200000 M⁻¹ s⁻¹

molecular target: T1, human CD3 E&D complex protein (Sino …); assay: BLI, antibody on sensor; remark: another data set of the same source
Method: (§1) 100 μl SD buffer, various antibodies, human CD3 E&D complex protein (Sino Biological Inc., CT026H0323H), and cynomolgus monkey CD3 E&D complex protein (Sino Biological Inc., CT032-00323H) were added into 96-well black polystyrene semi-quantitative micro-well plate (Greiner, 675076) respectively. Fortebio Octet Red 96 was used for detection, and the sensor position was selected according to the sample position. The setting parameters of the instrument are as follows: operation steps: Baseline, Loading-1 nm, Baseline, Association and Dissociation; the operation time of each step depends on the speed of sample association and dissociation. The rotational speed is 1000 rpm and the temperature is 30° C. ForteBio Octet analysis software was used to analyze KD value.

Row | Binder | binding result | Kd | koff | kon
21 | B11 | no binding |  |  | 
22 | B12 |  | 0.605 nM | 0.00214 s⁻¹ | 3.54e+06 M⁻¹ s⁻¹
23 | B13 |  | 3.13 nM | 0.00202 s⁻¹ | 644000 M⁻¹ s⁻¹
24 | B14 | no binding |  |  | 
25 | B15 |  | 2.41 nM | 0.00159 s⁻¹ | 661000 M⁻¹ s⁻¹
26 | B16 | no binding |  |  | 
27 | B17 |  | 0.847 nM | 0.00275 s⁻¹ | 3.25e+06 M⁻¹ s⁻¹
28 | B18 |  | 0.51 nM | 0.00206 s⁻¹ | 4.04e+06 M⁻¹ s⁻¹
29 | B19 |  | 0.613 nM | 0.00233 s⁻¹ | 3.8e+06 M⁻¹ s⁻¹
30 | B20 |  | 0.629 nM | 0.00208 s⁻¹ | 3.31e+06 M⁻¹ s⁻¹
31 | B21 |  | 0.554 nM | 0.00198 s⁻¹ | 3.57e+06 M⁻¹ s⁻¹
32 | B22 |  | 1.17 nM | 0.00273 s⁻¹ | 2.35e+06 M⁻¹ s⁻¹

molecular target: T3, cynomolgus monkey CD3 E&D complex protein (Sino Biological Inc., CT032-00323H) (cynomolgus monkey, UniProt Q95LI5 22-117; Q95LI8 22-105); assay: BLI, antibody on sensor
T3 construct: bought heterodimer
T3 sequence (Q95LI5 22-117, chain 1 of 2): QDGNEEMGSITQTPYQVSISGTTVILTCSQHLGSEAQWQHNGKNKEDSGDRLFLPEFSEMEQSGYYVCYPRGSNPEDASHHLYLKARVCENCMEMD
T3 sequence (Q95LI8 22-105, chain 2 of 2): as the sequence (P04234 22-105, chain 2 of 2) above, with I5V, N15K, I20V, S32T, D33N, I34N, T64A, S74N, V83L counted along it
Method: as §1

Row | Binder | binding result | Kd | koff | kon
33 | B11 | no binding |  |  | 
34 | B12 |  | 0.585 nM | 0.000886 s⁻¹ | 1.52e+06 M⁻¹ s⁻¹
35 | B13 |  | 1.75 nM | 0.00115 s⁻¹ | 658000 M⁻¹ s⁻¹
36 | B14 | no binding |  |  | 
37 | B15 |  | 0.195 nM | 9.49e-05 s⁻¹ | 488000 M⁻¹ s⁻¹
38 | B16 | no binding |  |  | 
39 | B17 |  | 0.756 nM | 0.0011 s⁻¹ | 1.46e+06 M⁻¹ s⁻¹
40 | B18 |  | 0.514 nM | 0.000915 s⁻¹ | 1.78e+06 M⁻¹ s⁻¹
41 | B19 |  | 0.602 nM | 0.00099 s⁻¹ | 1.64e+06 M⁻¹ s⁻¹
42 | B20 |  | 0.67 nM | 0.00088 s⁻¹ | 1.31e+06 M⁻¹ s⁻¹
43 | B21 |  | 0.605 nM | 0.000791 s⁻¹ | 1.31e+06 M⁻¹ s⁻¹
44 | B22 |  | 0.857 nM | 0.000913 s⁻¹ | 1.07e+06 M⁻¹ s⁻¹
